First the molecules themselves.
B1: Serine/threonine-protein kinase 3 (Homo sapiens), Q13188 (parent)
chain: MEQPPAPKSKLKKLSEDSLTKQPEEVFDVLEKLGEGSYGSVFKAIHKESGQVVAIKQVPVESDLQEIIKEISIMQQCDSPYVVKYYGSYFKNTDLWIVMEYCGAGSVSDIIRLRNKTLIEDEIATILKSTLKGLEYLHFMRKIHRDIKAGNILLNTEGHAKLADFGVAGQLTDTMAKRNTVIGTPFWMAPEVIQEIGYNCVADIWSLGITSIEMAEGKPPYADIHPMRAIFMIPTNPPPTFRKPELWSDDFTDFVKKCLVKNPEQRATATQLLQHPFIKNAKPVSILRDLITEAMEIKAKRHEEQQRELEEEEENSDEDELDSHTMVKTSVESVGTMRATSTMSEGAQTMIEHNSTMLESDLGTMVINSEDEEEEDGTMKRNATSPQVQRPSFMDYFDKQDFKNKSHENCNQNMHEPFPMSKNVFPDNWKVPQDGDFDFLKNLSLEELQMRLKALDPMMEREIEELRQRYTAKRQPILDAMDAKKRRQQNF
partner: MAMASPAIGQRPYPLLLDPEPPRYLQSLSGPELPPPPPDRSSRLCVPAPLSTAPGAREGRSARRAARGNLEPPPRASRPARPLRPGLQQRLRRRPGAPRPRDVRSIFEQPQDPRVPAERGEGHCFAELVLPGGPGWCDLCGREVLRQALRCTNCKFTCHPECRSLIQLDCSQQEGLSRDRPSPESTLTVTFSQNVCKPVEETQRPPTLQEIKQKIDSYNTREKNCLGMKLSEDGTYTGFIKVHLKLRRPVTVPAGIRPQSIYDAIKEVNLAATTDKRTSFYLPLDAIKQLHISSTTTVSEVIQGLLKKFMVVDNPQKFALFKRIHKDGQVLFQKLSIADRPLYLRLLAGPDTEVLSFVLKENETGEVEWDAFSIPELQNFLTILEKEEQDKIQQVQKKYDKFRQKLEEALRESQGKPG

The values below come from IntAct's records for PubMed 23972470.

The variants in the assay derive from B1. The following applies: with RASSF5, Q8WWW0-1.
Consider K473A, for which the “effect of a mutation on the interaction” value is reported as “decreasing interaction strength”.
